Results as given in the Immune Epitope Database (IEDB).

Key:
Experiment in all cases: IEDB peptide-MHC binding, purified MHC/competitive/radioactivity; ≥ and ≤ were set here for values at or beyond the usual limits of such assays
Conditions in all cases: source organism: Bordetella pertussis
[1] = molecular target: HLA-B*35:01
[2] = molecular target: HLA-B*57:01
[3] = molecular target: HLA-B*44:03
[4] = molecular target: HLA-B*53:01
[5] = molecular target: HLA-B*07:02

Question: PFIIKLKDC was tested. Which IC50 [1] did it give?
Answer: 11.6 µM

Question: Which IC50 [2] does the source give for VARLVKLQG here?
Answer: ≥ 70.4 µM

Question: For PLPPRPVVA, which IC50 [3] is on record?
Answer: 55.9 µM

Question: With KAKSLTTEI as the sequence, how does the IC50 [2] read?
Answer: ≥ 70.4 µM

Question: GEIALGDAT was tested. Which IC50 [3] did it give?
Answer: 15.6 µM

Question: With HADWNNQSI as the sequence, how does the IC50 [4] read?
Answer: 12.4 µM

Question: With VIGACTSPY as the sequence, how does the IC50 [1] read?
Answer: 62.6 µM

Question: For TPLPVSLTA, which IC50 [1] is on record?
Answer: 0.209 µM

Question: And the IC50 [4]?
Answer: 11.8 µM

Question: For LPPRPVVAE, which IC50 [5] is on record?
Answer: ≥ 77.5 µM

Question: Which IC50 [1] does the source give for YSTGDLRAY here?
Answer: 31.4 µM

Question: YALKSRIAL was tested. Which IC50 [1] did it give?
Answer: 19.3 µM

Question: For KEVDGIIQE, which IC50 [3] is on record?
Answer: 39.1 µM

Question: YEVTPTRML was tested. Which IC50 [3] did it give?
Answer: 19 µM
